In the supplement of paper PMC9112550, “Optimization of the antimicrobial peptide Bac7 by deep mutational scanning” (BMC Biology, 2022):

The sequences below were run on Escherichia coli TOP10 (assay: shrunken log2 fold change of peptide-encoding DNA abundance (4.5 h post-induction vs induction); higher = less antimicrobial activity (less host growth inhibition)). Conditions: time post-induction: 4.5 h; library: site-saturation at positions 5, 18, 19, 20.
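Note: peptides expressed intracellularly from a pBAD plasmid library in pooled LB shake-flask culture, induced with 0.3% L-arabinose, DNA abundance read by NGS, three biological replicates, DESeq2 with apeglm shrinkage.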

Sequence | shrunken log2 fold change
RRIRERPPRLPRPRPRPYCFPRP | -0.511
RRIRLRPPRLPRPRPRPRGIPRP | -0.0811
RRIRPRPPRLPRPRPRPLSNPRP | -0.1
RRIRVRPPRLPRPRPRPYVFPRP | -0.136
RRIRERPPRLPRPRPRPIQSPRP | -0.642
RRIRCRPPRLPRPRPRPLAYPRP | -0.616
RRIRVRPPRLPRPRPRPWWQPRP | -0.201
RRIRHRPPRLPRPRPRPDACPRP | -0.0498
RRIRYRPPRLPRPRPRPHQTPRP | 0.0583
RRIRCRPPRLPRPRPRPGHAPRP | 0.297
RRIRCRPPRLPRPRPRPIDKPRP | -0.161
RRIRRRPPRLPRPRPRPTFSPRP | 0.185
RRIRKRPPRLPRPRPRPKVPPRP | 0.225
RRIRNRPPRLPRPRPRPPPMPRP | 0.678
RRIRKRPPRLPRPRPRPKCYPRP | -0.0561
RRIRTRPPRLPRPRPRPMMAPRP | 0.0689
RRIRERPPRLPRPRPRPGKQPRP | -0.0388
RRIRTRPPRLPRPRPRPKKVPRP | -0.282
RRIRERPPRLPRPRPRPDDGPRP | -0.269
RRIRTRPPRLPRPRPRPLAPPRP | 0.263
RRIRARPPRLPRPRPRPKLNPRP | 0.16
RRIRNRPPRLPRPRPRPRMGPRP | 0.0394
RRIRTRPPRLPRPRPRPQPNPRP | 0.0183
RRIRPRPPRLPRPRPRPSYIPRP | -0.458
RRIRQRPPRLPRPRPRPEWTPRP | -0.00618

Sequence | shrunken log2 fold change
RRIRNRPPRLPRPRPRPFPFPRP | -0.22
RRIRCRPPRLPRPRPRPMCNPRP | -0.378
RRIRRRPPRLPRPRPRPHCYPRP | 0.0243
RRIRYRPPRLPRPRPRPSDKPRP | -0.194
RRIRTRPPRLPRPRPRPTGFPRP | -0.0124
RRIRIRPPRLPRPRPRPKMTPRP | 0.123
RRIRERPPRLPRPRPRPHAHPRP | -0.0467
RRIRARPPRLPRPRPRPCNGPRP | -0.139
RRIRNRPPRLPRPRPRPSSMPRP | -0.458
RRIRERPPRLPRPRPRPHYQPRP | -0.267
RRIRFRPPRLPRPRPRPYVIPRP | -0.303
RRIRSRPPRLPRPRPRPCGDPRP | -0.0559
RRIRGRPPRLPRPRPRPAPAPRP | 1.14
RRIRNRPPRLPRPRPRPCLIPRP | -0.018
RRIRQRPPRLPRPRPRPDKTPRP | -0.00926
RRIRIRPPRLPRPRPRPFFIPRP | -0.641
RRIRMRPPRLPRPRPRPNPPPRP | 0.311
RRIRKRPPRLPRPRPRPPVNPRP | 0.04
RRIRWRPPRLPRPRPRPLEIPRP | 0.299
RRIRVRPPRLPRPRPRPTIPPRP | -0.0501
RRIRNRPPRLPRPRPRPYGSPRP | -0.0603
RRIRTRPPRLPRPRPRPEDAPRP | 0.0648
RRIRDRPPRLPRPRPRPVIDPRP | 0.35
RRIRFRPPRLPRPRPRPMVTPRP | -0.138
RRIRVRPPRLPRPRPRPSIDPRP | -0.455

Sequence | shrunken log2 fold change
RRIRSRPPRLPRPRPRPSNDPRP | -0.349
RRIRWRPPRLPRPRPRPIAEPRP | 0.00894
RRIRLRPPRLPRPRPRPYFIPRP | -1.11
RRIRKRPPRLPRPRPRPWVIPRP | -0.182
RRIRDRPPRLPRPRPRPLKAPRP | -0.214
RRIRRRPPRLPRPRPRPNHVPRP | -0.443
RRIRHRPPRLPRPRPRPRYLPRP | -0.0229
RRIRNRPPRLPRPRPRPMNEPRP | 0.0961
RRIRDRPPRLPRPRPRPCVEPRP | 0.111
RRIRIRPPRLPRPRPRPTETPRP | 0.0225
RRIRARPPRLPRPRPRPGPWPRP | 0.193
RRIRPRPPRLPRPRPRPCRQPRP | 0.111
RRIRGRPPRLPRPRPRPMYMPRP | -0.169
RRIRPRPPRLPRPRPRPEDAPRP | 0.0442
RRIRERPPRLPRPRPRPQWHPRP | -0.479
RRIRFRPPRLPRPRPRPHAYPRP | -0.118
RRIRQRPPRLPRPRPRPAVPPRP | -0.0193
RRIRWRPPRLPRPRPRPNTLPRP | -0.359
RRIRVRPPRLPRPRPRPGKYPRP | -0.493
RRIRWRPPRLPRPRPRPIPPPRP | 0.101
RRIRERPPRLPRPRPRPLTQPRP | -0.281
RRIRGRPPRLPRPRPRPNCPPRP | -0.161
RRIRVRPPRLPRPRPRPWVLPRP | 0.054
RRIRDRPPRLPRPRPRPCAGPRP | 0.0969
RRIRCRPPRLPRPRPRPSCPPRP | -0.407
